Where two headings read alike, the source gives them in different places.
How the values were obtained:
[1] = target: 非洲猪瘟病毒(ASFV)灭活抗原 (African swine fever virus)
[2] = target: 非洲猪瘟病毒(ASFV)灭活抗原 (African swine fever virus); remark: listed apart in the source
[3] = target: 非洲猪瘟病毒(ASFV)灭活抗原 (African swine fever virus); remark: listed apart in the source

B1: 全猪源非洲猪瘟病毒单克隆抗体 κ-9B (antibody, V domains shown)
VH: EGKLVESGGGLVQPGGSLRLSCVGSGFDFINTYMNWVRQAPGKGLEWLATISTKGISTYYADSVKGRFTISKDNSQNTADLLMRILRIEDTVRYFCAMSDSGGRNCVAGDSSCPHYYGMNLWGPGVEVVVSS
VL: AIQLTQSPASLAASLGDTVSVTCRASQSISSYLAWYQQQPGKAPKLLIVAASTLQSGVPSRFKGSGSGTDFTLTISGLQAEDVATYYCFQRNSVPWTFGQGTKLELKA
**Q.** With B1 as the binder, how does the OD值 [1] read?
**A.** 0.733 OD450nm

**Q.** And the OD值 [2]?
**A.** 1.91 OD450nm

**Q.** What about the OD值 [3] of the same binder?
**A.** 0.717 OD450nm

Reference: patent publication CN113278066A
